{"source": "paper PMC6599547", "about": "(Journal of molecular biology, 2019)", "target": "T1, N-terminally tagged soluble SARAF luminal domain, SP-XFP-SARAFL-R (SARAF(Δ165-339) with signal peptide and … (human, UniProt Q96BY9 31-164))", "T1 sequence": "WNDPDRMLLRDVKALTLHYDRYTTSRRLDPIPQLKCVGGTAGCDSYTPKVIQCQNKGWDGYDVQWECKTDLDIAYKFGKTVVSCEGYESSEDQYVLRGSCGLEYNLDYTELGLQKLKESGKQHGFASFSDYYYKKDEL", "assay": "FRET or BRET"}
{"binder": "C-terminally tagged soluble SARAF luminal domain, SP-SARAFL-XFP-R (domain or fragment, human) WNDPDRMLLRDVKALTLHYDRYTTSRRLDPIPQLKCVGGTAGCDSYTPKVIQCQNKGWDGYDVQWECKTDLDIAYKFGKTVVSCEGYESSEDQYVLRGSCGLEYNLDYTELGLQKLKESGKQHGFASFSDYYYKTGRPACKIPNDLKQKVMNHKDEL", "values": [{"measurement": "FRET signal, fold over the pair with both fluorophores at the N-terminus", "result": "~3", "unit": "fold"}]}
